Drawing on the supplement of paper PMC10126150, this text covers switch fluorescence ratio for 120 sequences.

± gives the standard deviation of the averaged measurements.

The data set relates to ATP. Nature of the data set: switch fluorescence ratio, 500 uM ATP over buffer (Cy3 cluster intensity, sum of 5 cycles each) (fold (ratio)); higher = stronger signal-on switching upon ATP binding; sequences stand for … in TCGTCGGCAGCGTCAGATGTGTATAAGAGACAGTTTTTTTTTTTTTTTTTTTTTTTTT…TC. To be noted: aptamer strand: ATP DNA aptamer (quencher-CACCTGGGGGAGTATTGCGGAGGAAGG + anchor), 100 nM annealed; ATP concentration: 500 uM. The gist of the method:
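Clusters with intensities outside 100-1000 RFU were excluded. The remaining Cy3-labelled switching-strand clusters on a modified Illumina MiSeq flow-cell had been annealed to 100 nM quencher-labelled ATP aptamer and imaged in selection buffer, then after 15 min with 500 uM ATP at 22 °C, for five cycles separated by NaOH stripping and re-annealing. The fluorescence ratio, averaged per switch-domain sequence, is each cluster's summed target-cycle Cy3 intensity over its summed buffer-cycle Cy3 intensity.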
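Also: ATP exposure 15 min at 22 °C before imaging.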

Consider AAAATGGAGG, for which the switch fluorescence ratio was determined as 1.005 ± 0.0049.

Consider TGGGCTTATC, for which the switch fluorescence ratio came out at 1.012 ± 0.0097.

For the sequence AACACCTAGG, the switch fluorescence ratio amounted to 1.02 ± 0.028.

Consider AATCGAGTCC, for which the switch fluorescence ratio amounted to 1.107 ± 0.011.

As to ACTGGTAACG, the switch fluorescence ratio turned out to be 1.02 ± 0.024.

Consider GGGTTGCCAG, for which the switch fluorescence ratio was 0.997 ± 0.025.

On to GTTACCAGGT, for which the switch fluorescence ratio is 1.16 ± 0.097.

As to ATAATCGGGA, the switch fluorescence ratio turned out to be 0.994 ± 0.034.

Regarding AAAAATGCCG, the switch fluorescence ratio was 0.99 ± 0.019.

Take GTGTTTTTGG: the switch fluorescence ratio came to 0.983 ± 0.022.

With TAACGGTTAT, the switch fluorescence ratio was found to be 1.01 ± 0.024.

For GTGGTAAGCT, the switch fluorescence ratio is 1.02 ± 0.049.

Consider TATTTAAAGG, for which the switch fluorescence ratio worked out at 0.986 ± 0.02.

Take AAATCATTGT: the switch fluorescence ratio was determined as 1 ± 0.014.

As for TAATAAAGAT, the switch fluorescence ratio was 0.969 ± 0.054.

On to AGATTTTTAA, for which the switch fluorescence ratio was 1.004 ± 0.0097.

Regarding AAAGGGTTTT, the switch fluorescence ratio worked out at 1.01 ± 0.022.

Take TATAGAGGG: the switch fluorescence ratio is 0.969 ± 0.011.

For the sequence AGGGGAGATG, the switch fluorescence ratio was found to be 0.991 ± 0.048.

Take GAAGGGGTTG: the switch fluorescence ratio came to 1.02 ± 0.065.

Turning to TTAGTTTGGG, the switch fluorescence ratio was determined as 1.02 ± 0.016.

For the sequence CAGAGTATCG, the switch fluorescence ratio worked out at 1 ± 0.021.

Consider CGCGTGGGGC, for which the switch fluorescence ratio stood at 1.06 ± 0.015.

ATATATCGTT: the switch fluorescence ratio stood at 0.981 ± 0.024.

As to TTTTGTACGT, the switch fluorescence ratio came to 1.02 ± 0.041.

AGGGTTGGGG: the switch fluorescence ratio stood at 0.991 ± 0.031.

As for GCATAGGTTA, the switch fluorescence ratio is 1 ± 0.015.

Consider CGTTTACCGT, for which the switch fluorescence ratio worked out at 0.983 ± 0.019.

For the sequence AGTGGGGCC, the switch fluorescence ratio turned out to be 1 ± 0.075.

As to GGATTTTAAA, the switch fluorescence ratio stood at 1 ± 0.022.

For GGGGTGGATG, the switch fluorescence ratio amounted to 0.997 ± 0.018.

In the case of ATTGAGTTCT, the switch fluorescence ratio was 1 ± 0.012.

In the case of TTATTAGGGC, the switch fluorescence ratio is 1 ± 0.083.

Take ATATTTTAGT: the switch fluorescence ratio came to 1.03 ± 0.031.

For CGGCGTTCGC, the switch fluorescence ratio amounted to 0.964 ± 0.049.

For TGTGGGGCAG, the switch fluorescence ratio stood at 0.968 ± 0.03.

Turning to ATAGTTCAGC, the switch fluorescence ratio stood at 0.9822 ± 0.0058.

Consider TTATGATACG, for which the switch fluorescence ratio stood at 1.01 ± 0.017.

Consider TCAGGGAGGT, for which the switch fluorescence ratio came out at 0.989 ± 0.051.

Regarding TTGCGCGGGG, the switch fluorescence ratio was determined as 1.02 ± 0.077.

In the case of GTCGAGGGTC, the switch fluorescence ratio was 0.944 ± 0.03.

As for TCTGTAATTT, the switch fluorescence ratio was 1.41 ± 0.59.

Take GTTGCACTGG: the switch fluorescence ratio was 1.01 ± 0.011.

As to GCTTTGGATG, the switch fluorescence ratio turned out to be 0.968 ± 0.05.

Regarding TCTAAAAGAT, the switch fluorescence ratio was 0.9771 ± 0.0026.

For the sequence TCAATGATAT, the switch fluorescence ratio is 1.02 ± 0.019.

Take ATGTTGGGCT: the switch fluorescence ratio is 0.962 ± 0.018.

For the sequence GGGGCGGGGC, the switch fluorescence ratio stood at 1.01 ± 0.014.

In the case of AAAAAAAATT, the switch fluorescence ratio was 0.993 ± 0.044.

As for ATGATCAGCT, the switch fluorescence ratio was determined as 0.9824 ± 0.0077.

Regarding CTATTCGGCC, the switch fluorescence ratio was found to be 0.986 ± 0.02.

For TATTGAGACT, the switch fluorescence ratio was found to be 0.989 ± 0.004.

For the sequence ACCGTCCAAA, the switch fluorescence ratio came to 1.03 ± 0.024.

With ATCGTCACGG, the switch fluorescence ratio came to 1.022 ± 0.0012.

As for TTGTTTGGTA, the switch fluorescence ratio was 1 ± 0.013.

With ATAGTAGGCT, the switch fluorescence ratio worked out at 0.994 ± 0.011.

Consider TAAAATGGTT, for which the switch fluorescence ratio turned out to be 1.02 ± 0.032.

As to TCTCAGGGGA, the switch fluorescence ratio came out at 1.16 ± 0.11.

In the case of GGACGGGTGT, the switch fluorescence ratio amounted to 0.996 ± 0.011.

On to AGAATGTGC, for which the switch fluorescence ratio amounted to 0.9956 ± 0.0047.

For the sequence ATAGTTTACT, the switch fluorescence ratio came out at 1.01 ± 0.024.

For TCCCAAAGGG, the switch fluorescence ratio was found to be 1.63 ± 0.91.

With CGGTACTATA, the switch fluorescence ratio amounted to 1.055 ± 0.0086.

With TGCCGGGGGT, the switch fluorescence ratio was determined as 1.03 ± 0.088.

For the sequence AGGATTTTTC, the switch fluorescence ratio turned out to be 1.03 ± 0.044.

GTTTAGAATT: the switch fluorescence ratio came to 1.004 ± 0.01.

Take GATTTTTTGG: the switch fluorescence ratio was 0.991 ± 0.034.

ACACGTAGTT: the switch fluorescence ratio was 0.984 ± 0.021.

Turning to GGAAGTGGTA, the switch fluorescence ratio amounted to 0.976 ± 0.021.

With AGGGGGAATA, the switch fluorescence ratio was 1.02 ± 0.011.

TTTTGGAAAT: the switch fluorescence ratio worked out at 1.02 ± 0.027.

On to GATAGCATTT, for which the switch fluorescence ratio amounted to 1.04 ± 0.039.

Turning to GGATCCTGTT, the switch fluorescence ratio was determined as 1.01 ± 0.027.

On to GATGGTAGTC, for which the switch fluorescence ratio is 0.994 ± 0.027.

AAGTTAGGGT: the switch fluorescence ratio was 0.999 ± 0.021.

With CGGTTAAGAT, the switch fluorescence ratio came to 0.993 ± 0.012.

With AAAGAGGGT, the switch fluorescence ratio was 0.986 ± 0.018.

In the case of ACAAAGTAAA, the switch fluorescence ratio is 1.01 ± 0.035.

For CTATTGGGAG, the switch fluorescence ratio was 1.03 ± 0.032.

As to GGCAGCTGGA, the switch fluorescence ratio was 0.9578 ± 0.0072.

Regarding AGCCCCATAG, the switch fluorescence ratio was 1.17 ± 0.042.

ATAGGCGAAA: the switch fluorescence ratio came out at 0.986 ± 0.022.

For the sequence TAATGGAGGT, the switch fluorescence ratio came to 0.979 ± 0.038.

In the case of TTGTGCTATT, the switch fluorescence ratio worked out at 1.26 ± 0.32.

As for GTTATAAGGA, the switch fluorescence ratio is 0.988 ± 0.019.

AATGGAAGGC: the switch fluorescence ratio is 1.09 ± 0.07.

Turning to CGGATGGGGA, the switch fluorescence ratio stood at 0.993 ± 0.028.

With TGGGGGTT, the switch fluorescence ratio worked out at 0.997 ± 0.032.

Regarding TGGATCTGCC, the switch fluorescence ratio turned out to be 1.036 ± 0.0056.

As to GTGGGATGAT, the switch fluorescence ratio turned out to be 0.9663 ± 0.0078.

As to TTCACTAGGT, the switch fluorescence ratio came out at 1.01 ± 0.039.

As for TGCGGGGGGA, the switch fluorescence ratio was 1.03 ± 0.036.

Turning to AGGTTAAAAC, the switch fluorescence ratio turned out to be 1.2 ± 0.19.

For the sequence AGCGGGGTTT, the switch fluorescence ratio was 0.987 ± 0.011.

For TACGCAGTAT, the switch fluorescence ratio was determined as 1.15 ± 0.061.

On to GAGGGGGAGA, for which the switch fluorescence ratio was found to be 0.99 ± 0.024.

On to TACAGGGTTT, for which the switch fluorescence ratio stood at 1.021 ± 0.005.

On to CGAATGGTAA, for which the switch fluorescence ratio came to 1.05 ± 0.051.

In the case of TCTATTTGGT, the switch fluorescence ratio stood at 0.9827 ± 0.0098.

In the case of ATATTTGCGA, the switch fluorescence ratio worked out at 0.973 ± 0.022.

For the sequence GGGGGGCGGA, the switch fluorescence ratio is 1.01 ± 0.039.

On to TTCAAGTAGT, for which the switch fluorescence ratio came to 0.997 ± 0.02.

On to GGACCTGCTG, for which the switch fluorescence ratio came out at 0.969 ± 0.0033.

In the case of AAGCCCTACA, the switch fluorescence ratio worked out at 1.01 ± 0.03.

For TGTTAGGGCT, the switch fluorescence ratio was determined as 0.918 ± 0.021.

As to GTTGGTATT, the switch fluorescence ratio was found to be 1.01 ± 0.024.

Regarding AGAGAGGTTA, the switch fluorescence ratio is 1.02 ± 0.014.

On to CCGGTACGTC, for which the switch fluorescence ratio amounted to 1.12 ± 0.044.

For the sequence TATTACAAGT, the switch fluorescence ratio turned out to be 1.01 ± 0.015.

Regarding ATTAAGCATG, the switch fluorescence ratio is 1.004 ± 0.0088.

GCAGTTGCTG: the switch fluorescence ratio is 0.999 ± 0.02.

On to TGAGTGACTT, for which the switch fluorescence ratio turned out to be 0.974 ± 0.012.

For the sequence CAATGGGCTC, the switch fluorescence ratio was found to be 1.016 ± 0.0084.

On to AGGTTCGGCG, for which the switch fluorescence ratio came out at 1 ± 0.015.

Regarding GCGATTCCAG, the switch fluorescence ratio was 1.02 ± 0.0065.

Consider TGTTCGGAAA, for which the switch fluorescence ratio turned out to be 1.01 ± 0.014.

In the case of ATTCTGGGGG, the switch fluorescence ratio came out at 1.04 ± 0.048.

Turning to GGGCGAATGG, the switch fluorescence ratio worked out at 1.02 ± 0.029.

As for TTGTTAGAGT, the switch fluorescence ratio was found to be 0.9809 ± 0.0019.

Regarding CTTGGGGGCC, the switch fluorescence ratio was determined as 0.986 ± 0.012.
